The values that follow come from US20220389394A1 (Gilead, published 2022).

One experiment deals with T1, recombinant human FcRn (human, UniProt P55899 24-297; P61769 21-119, limits assumed).
T1 construct: a beta-2-microglobulin chain is not mentioned; also called human recombinant FcRn
Description: ELISA; recombinant human FcRn coated, serially diluted test article, anti-human (H+L)-HRP, 4PL fit; estimate, no saturating signal. Here is the method:
Graph is a result of one experiment. Experiment was performed in duplicate. Error bars represent standard deviation of the mean values.
Signal was developed using TMB substrate then quenched prior to reading absorbance at 450-650 nm on a SpectraMax plate reader.

Experiment [1] addresses T2, recombinant human C1q protein (Fitzgerald) (human, UniProt P02745 23-245; P02746 28-253; P02747 29-245, limits assumed).
T2 construct: also called human recombinant complement protein, C1q
Description: ELISA, test article immobilized, C1q added; text: devoid of C1q binding ability. For orientation: In an ELISA, binding on a coated surface is turned into a signal by an enzyme label.

Experiment [2] addresses T3, his-tagged recombinant human Flt3 receptor (Sino Biologicals) (human, UniProt P36888 27-541, limits assumed).
T3 construct: Bought protein; also called human recombinant FLT3; not shown: His tag
T3 sequence (looked up): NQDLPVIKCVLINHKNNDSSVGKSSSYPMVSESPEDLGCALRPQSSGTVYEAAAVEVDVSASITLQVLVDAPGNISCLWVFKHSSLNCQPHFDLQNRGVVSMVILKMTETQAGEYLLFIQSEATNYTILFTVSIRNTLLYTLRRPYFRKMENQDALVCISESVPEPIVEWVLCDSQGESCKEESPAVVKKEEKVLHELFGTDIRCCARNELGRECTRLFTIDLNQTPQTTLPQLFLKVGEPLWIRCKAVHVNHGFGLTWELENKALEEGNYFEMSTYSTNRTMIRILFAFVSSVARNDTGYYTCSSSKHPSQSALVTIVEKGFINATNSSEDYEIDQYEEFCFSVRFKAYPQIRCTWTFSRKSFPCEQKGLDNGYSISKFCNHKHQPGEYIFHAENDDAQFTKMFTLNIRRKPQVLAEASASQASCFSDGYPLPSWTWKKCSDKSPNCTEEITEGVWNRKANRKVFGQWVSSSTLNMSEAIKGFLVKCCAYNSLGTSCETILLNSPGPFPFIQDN
As to the kind of experiment: ELISA; His-tagged recombinant human Flt3 on nickel plate, serially diluted Flt3L-Fc, anti-human (H+L)-HRP, 4PL fit. The source says:
Graph is a result of one experiment.
Signal was developed using TMB substrate then quenched prior to reading absorbance at 450 nm on a SpectraMax plate reader.

In experiment [3] the target is T4, human FLT3 on the AML5 cell line (human, UniProt P36888 27-993).
T4 sequence (looked up): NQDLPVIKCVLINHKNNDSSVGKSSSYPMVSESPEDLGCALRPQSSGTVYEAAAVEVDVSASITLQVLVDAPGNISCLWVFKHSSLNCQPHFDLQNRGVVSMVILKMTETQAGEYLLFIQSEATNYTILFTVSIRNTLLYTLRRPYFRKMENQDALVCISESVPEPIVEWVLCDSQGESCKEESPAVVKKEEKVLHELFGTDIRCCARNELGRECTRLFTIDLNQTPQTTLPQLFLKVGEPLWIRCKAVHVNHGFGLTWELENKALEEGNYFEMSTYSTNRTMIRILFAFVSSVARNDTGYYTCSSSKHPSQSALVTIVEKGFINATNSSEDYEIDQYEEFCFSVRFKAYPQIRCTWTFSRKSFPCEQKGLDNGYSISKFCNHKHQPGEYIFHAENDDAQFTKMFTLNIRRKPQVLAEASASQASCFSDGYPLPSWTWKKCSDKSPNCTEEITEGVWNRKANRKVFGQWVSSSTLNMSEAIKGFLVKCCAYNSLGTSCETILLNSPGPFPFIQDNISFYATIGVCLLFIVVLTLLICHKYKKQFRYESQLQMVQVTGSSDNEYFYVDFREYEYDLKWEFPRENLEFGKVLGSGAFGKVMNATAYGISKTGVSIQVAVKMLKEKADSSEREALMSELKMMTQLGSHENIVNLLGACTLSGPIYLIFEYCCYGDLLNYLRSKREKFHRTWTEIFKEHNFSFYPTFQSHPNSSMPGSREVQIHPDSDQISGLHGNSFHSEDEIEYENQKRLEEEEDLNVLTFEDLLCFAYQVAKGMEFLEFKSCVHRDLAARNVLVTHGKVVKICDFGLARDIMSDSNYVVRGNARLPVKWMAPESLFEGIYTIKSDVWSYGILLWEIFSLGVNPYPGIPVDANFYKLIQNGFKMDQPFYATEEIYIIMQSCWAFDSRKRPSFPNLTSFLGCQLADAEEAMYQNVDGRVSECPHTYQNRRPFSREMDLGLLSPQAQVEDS
As to the kind of experiment: cell-based or functional assay.

Experiment [4] has as its target T4, human FLT3 on the AML5 cell line. As to the kind of experiment: cell-based or functional assay. This is another data set of the same source.
The target is the same in experiment [5]. Description: cell-based or functional assay. The source holds these as a separate data set.
The target is the same in experiment [6]. Description: cell-based or functional assay. This is another data set of the same source.

Where two headings read alike, the source gives them in different places.

T1 sequence (P55899 24-297 limits assumed, chain 1 of 2): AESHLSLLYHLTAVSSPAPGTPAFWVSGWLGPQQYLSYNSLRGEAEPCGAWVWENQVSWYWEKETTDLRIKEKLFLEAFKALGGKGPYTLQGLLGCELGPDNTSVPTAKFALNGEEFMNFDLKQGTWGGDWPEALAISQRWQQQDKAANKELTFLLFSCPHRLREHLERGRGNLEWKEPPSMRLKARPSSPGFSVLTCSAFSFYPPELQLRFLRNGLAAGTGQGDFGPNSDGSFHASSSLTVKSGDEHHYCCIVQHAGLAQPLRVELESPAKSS
T1 sequence (P61769 21-119 limits assumed, chain 2 of 2): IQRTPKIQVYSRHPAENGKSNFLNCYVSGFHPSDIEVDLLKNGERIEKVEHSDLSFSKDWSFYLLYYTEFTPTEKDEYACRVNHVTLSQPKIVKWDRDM
T2 sequence (P02745 23-245 limits assumed, chain 1 of 3): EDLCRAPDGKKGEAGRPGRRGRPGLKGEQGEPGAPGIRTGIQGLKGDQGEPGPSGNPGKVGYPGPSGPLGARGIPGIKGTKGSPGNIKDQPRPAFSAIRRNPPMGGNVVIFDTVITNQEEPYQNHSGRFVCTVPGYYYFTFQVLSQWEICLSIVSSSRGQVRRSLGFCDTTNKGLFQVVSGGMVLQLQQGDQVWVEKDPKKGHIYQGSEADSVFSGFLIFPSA
T2 sequence (P02746 28-253 limits assumed, chain 2 of 3): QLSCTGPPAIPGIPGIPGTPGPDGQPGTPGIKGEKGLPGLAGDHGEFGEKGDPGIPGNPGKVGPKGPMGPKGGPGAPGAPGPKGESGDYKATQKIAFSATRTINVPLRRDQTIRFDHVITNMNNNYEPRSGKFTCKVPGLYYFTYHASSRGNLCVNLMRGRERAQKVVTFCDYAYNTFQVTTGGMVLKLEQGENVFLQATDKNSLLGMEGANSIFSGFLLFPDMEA
T2 sequence (P02747 29-245 limits assumed, chain 3 of 3): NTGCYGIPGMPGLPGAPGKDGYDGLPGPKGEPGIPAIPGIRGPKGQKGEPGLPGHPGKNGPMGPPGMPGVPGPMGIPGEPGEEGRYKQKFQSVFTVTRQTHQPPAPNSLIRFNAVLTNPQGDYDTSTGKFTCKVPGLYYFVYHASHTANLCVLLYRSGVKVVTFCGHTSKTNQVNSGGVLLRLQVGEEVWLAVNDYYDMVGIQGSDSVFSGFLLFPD

B1: human FLT3-ligand (Δ10 amino acid) human hingeless IgG1 fusion protein (SEQ ID NO:7) (Fc fusion)
chain: TQDCSFQHSPISSDFAVKIRELSDYLLQDYPVTVASNLQDEELCGGLWRLVLAQRWMERLKTVAGSKMQGLLERVNTEIHFVTKCAFQPPPSCLRFVQTNISRLLQETSEQLVALKPWITRQNFSRCLELQCQPDSSTLPPPWSPRPGGPSVFLFPPKPKDTLMISRTPEVTCVVVDVSHEDPEVKFNWYVDGVEVHNAKTKPREEQYNSTYRVVSVLTVLHQDWLNGKEYKCKVSNKALPAPIEKTISKAKGQPREPQVYTLPPSREEMTKNQVSLTCLVKGFYPSDIAVEWESNGQPENNYKTTPPVLDSDGSFFLYSKLTVDKSRWQQGNVFSCSVMHEALHNHYTQKSLSLSPGK
Usually EC50 stands for the concentration that produces a half-maximal response. For B1, the EC50 in the experiment with recombinant human FcRn is around 158 nM; in experiment [2], 0.12 nM. For the same molecule, the binding result in experiment [1] is given as “no binding (tested: 94 nM (highest of the titration))”. For the same molecule, the “EC50 (nM), AML5 proliferation” value in experiment [3] is 0.071 nM.

B2: human FLT3-ligand (S128A/S151A) human hingeless IgG1 fusion protein (SEQ ID NO:5) (Fc fusion)
chain: TQDCSFQHSPISSDFAVKIRELSDYLLQDYPVTVASNLQDEELCGGLWRLVLAQRWMERLKTVAGSKMQGLLERVNTEIHFVTKCAFQPPPSCLRFVQTNIARLLQETSEQLVALKPWITRQNFARCLELQCQPDSSTLPPPWSPRPLEATAPTAPQGGPSVFLFPPKPKDTLMISRTPEVTCVVVDVSHEDPEVKFNWYVDGVEVHNAKTKPREEQYNSTYRVVSVLTVLHQDWLNGKEYKCKVSNKALPAPIEKTISKAKGQPREPQVYTLPPSREEMTKNQVSLTCLVKGFYPSDIAVEWESNGQPENNYKTTPPVLDSDGSFFLYSKLTVDKSRWQQGNVFSCSVMHEALHNHYTQKSLSLSPGK
notes: also called Aglyco-FLT3L ECD (S128A/S151A) hingeless hG1
On to B2, for which the concentration giving a half-maximal response (EC50) with recombinant human FcRn is around 133 nM; in experiment [2] it was 0.11 nM. Further, the binding result in experiment [1] is “no binding (tested: 94 nM (highest of the titration))”. Moreover, the “EC50 (nM), AML5 proliferation” value in experiment [3] stood at 0.078 nM.

B3: human FLT3-ligand (H8Y) human hingeless IgG1 fusion protein (SEQ ID NO:22) (Fc fusion)
chain: TQDCSFQYSPISSDFAVKIRELSDYLLQDYPVTVASNLQDEELCGGLWRLVLAQRWMERLKTVAGSKMQGLLERVNTEIHFVTKCAFQPPPSCLRFVQTNISRLLQETSEQLVALKPWITRQNFSRCLELQCQPDSSTLPPPWSPRPLEATAPTAPQGGPSVFLFPPKPKDTLMISRTPEVTCVVVDVSHEDPEVKFNWYVDGVEVHNAKTKPREEQYNSTYRVVSVLTVLHQDWLNGKEYKCKVSNKALPAPIEKTISKAKGQPREPQVYTLPPSREEMTKNQVSLTCLVKGFYPSDIAVEWESNGQPENNYKTTPPVLDSDGSFFLYSKLTVDKSRWQQGNVFSCSVMHEALHNHYTQKSLSLSPGK
Turning to B3, the “potency in AML5 proliferation, fold against SEQ ID NO:1” value (“potency … fold against SEQ ID NO:1” for short) in experiment [4] is around 2.5 fold. Also, in experiment [5], the “EC50 (nM), AML5 proliferation” value worked out at 0.014 nM.

B4: human FLT3-ligand (K84E) human hingeless IgG1 fusion protein (SEQ ID NO:23) (Fc fusion)
chain: TQDCSFQHSPISSDFAVKIRELSDYLLQDYPVTVASNLQDEELCGGLWRLVLAQRWMERLKTVAGSKMQGLLERVNTEIHFVTECAFQPPPSCLRFVQTNISRLLQETSEQLVALKPWITRQNFSRCLELQCQPDSSTLPPPWSPRPLEATAPTAPQGGPSVFLFPPKPKDTLMISRTPEVTCVVVDVSHEDPEVKFNWYVDGVEVHNAKTKPREEQYNSTYRVVSVLTVLHQDWLNGKEYKCKVSNKALPAPIEKTISKAKGQPREPQVYTLPPSREEMTKNQVSLTCLVKGFYPSDIAVEWESNGQPENNYKTTPPVLDSDGSFFLYSKLTVDKSRWQQGNVFSCSVMHEALHNHYTQKSLSLSPGK
Regarding B4, the “potency … fold against SEQ ID NO:1” value in experiment [4] was around 2.5 fold. Besides, in experiment [5], the “EC50 (nM), AML5 proliferation” value amounted to 0.013 nM.

B5: human FLT3-ligand (H8Y+K84E) human hingeless IgG1 fusion protein (SEQ ID NO:24) (Fc fusion)
chain: TQDCSFQYSPISSDFAVKIRELSDYLLQDYPVTVASNLQDEELCGGLWRLVLAQRWMERLKTVAGSKMQGLLERVNTEIHFVTECAFQPPPSCLRFVQTNISRLLQETSEQLVALKPWITRQNFSRCLELQCQPDSSTLPPPWSPRPLEATAPTAPQGGPSVFLFPPKPKDTLMISRTPEVTCVVVDVSHEDPEVKFNWYVDGVEVHNAKTKPREEQYNSTYRVVSVLTVLHQDWLNGKEYKCKVSNKALPAPIEKTISKAKGQPREPQVYTLPPSREEMTKNQVSLTCLVKGFYPSDIAVEWESNGQPENNYKTTPPVLDSDGSFFLYSKLTVDKSRWQQGNVFSCSVMHEALHNHYTQKSLSLSPGK
On to B5, for which the “potency … fold against SEQ ID NO:1” value in experiment [4] was around 2.5 fold. Further, the “EC50 (nM), AML5 proliferation” value in experiment [5] was found to be 0.013 nM.

B6: human FLT3-ligand (Δ5 amino acid) human hingeless IgG1 fusion protein (SEQ ID NO:2) (Fc fusion)
chain: TQDCSFQHSPISSDFAVKIRELSDYLLQDYPVTVASNLQDEELCGGLWRLVLAQRWMERLKTVAGSKMQGLLERVNTEIHFVTKCAFQPPPSCLRFVQTNISRLLQETSEQLVALKPWITRQNFSRCLELQCQPDSSTLPPPWSPRPLEATAGGPSVFLFPPKPKDTLMISRTPEVTCVVVDVSHEDPEVKFNWYVDGVEVHNAKTKPREEQYNSTYRVVSVLTVLHQDWLNGKEYKCKVSNKALPAPIEKTISKAKGQPREPQVYTLPPSREEMTKNQVSLTCLVKGFYPSDIAVEWESNGQPENNYKTTPPVLDSDGSFFLYSKLTVDKSRWQQGNVFSCSVMHEALHNHYTQKSLSLSPGK
notes: also called FLT3L ECD (Δ C-term 5aa (PTAPQ)) - hingeless hG1
Regarding B6, the results for the EC50 (with recombinant human FcRn; in experiment [2]) were around 300 nM and 0.13 nM, respectively. The binding result in experiment [1] is on record as “no binding (tested: 94 nM (highest of the titration))”. Besides, in experiment [3], the “EC50 (nM), AML5 proliferation” value came out at 0.083 nM.

B7: mouse FLT3-ligand mouse IgG2a (LALA-PG) fusion protein (SEQ ID NO:19) (Fc fusion)
chain: TPDCYFSHSPISSNFKVKFRELTDHLLKDYPVTVAVNLQDEKHCKALWSLFLAQRWIEQLKTVAGSKMQTLLEDVNTEIHFVTSCTFQPLPECLRFVQTNISHLLKDTCTQLLALKPCIGKACQNFSRCLEVQCQPDSSTLLPPRSPIALEATELPEPRGPTIKPCPPCKCPAPNAAGGPSVFIFPPKIKDVLMISLSPIVTCVVVDVSEDDPDVQISWFVNNVEVHTAQTQTHREDYNSTLRVVSALPIQHQDWMSGKEFKCKVNNKDLGAPIERTISKPKGSVRAPQVYVLPPPEEEMTKKQVTLTCMVTDFMPEDIYVEWTNNGKTELNYKNTEPVLDSDGSYFMYSKLRVEKKNWVERNSYSCSVVHEGLHNHHTTKSFSRTPGK
Turning to B7, in experiment [6], the “EC50 (nM), AML5 proliferation” value came to 0.171 nM.

B8: mouse FLT3-ligand mouse IgG2a (C136S LALA-PG) fusion protein (SEQ ID NO:20) (Fc fusion)
chain: TPDCYFSHSPISSNFKVKFRELTDHLLKDYPVTVAVNLQDEKHCKALWSLFLAQRWIEQLKTVAGSKMQTLLEDVNTEIHFVTSCTFQPLPECLRFVQTNISHLLKDTSTQLLALKPCIGKACQNFSRCLEVQCQPDSSTLLPPRSPIALEATELPEPRGPTIKPCPPCKCPAPNAAGGPSVFIFPPKIKDVLMISLSPIVTCVVVDVSEDDPDVQISWFVNNVEVHTAQTQTHREDYNSTLRVVSALPIQHQDWMSGKEFKCKVNNKDLGAPIERTISKPKGSVRAPQVYVLPPPEEEMTKKQVTLTCMVTDFMPEDIYVEWTNNGKTELNYKNTEPVLDSDGSYFMYSKLRVEKKNWVERNSYSCSVVHEGLHNHHTTKSFSRTPGK
In the case of B8, the “EC50 (nM), AML5 proliferation” value in experiment [6] came to 0.115 nM.
